Results from patent US20150218238A1, “TREATING DISEASES BY MODULATING A SPECIFIC ISOFORM OF MKL1” (NOVARTIS FORSCHUNGSSTIFTUNG, ZWEIGNIEDERLASSUNG FRIEDRICH …, priority 2012, published 2015).

Tested on: EcR-293 cells
Test: DNA microarray on EcR-293 cells overexpressing MKL1 isoforms
Type: cell-based, human
Settings: vs empty pcDNA3 vector
Protocol: DNA microarray EcR-293 cells stably transfected with 1) the empty pcDNA3 vector, 2) 5′UTR-MKL_L, 3) 5′UTR-MKL_S were grown in triplicates. For “untreated” samples, total RNA was extracted from cells in D-MEM/10% FBS. “LPA treated” cells were starved for 16 h in D-MEM/0.3% FBS and subsequently treated with 50 μm LPA for 20 min. RNA was extracted 4 h after treatment. RNA was converted into labeled cRNA and hybridized to Affymetrix Human Gene 1.0 arrays (Affymetrix, Santa Clara, Calif., USA). The procedure for the microarray analysis was as previously described (4). Differences in gene expression were calculated for 2) vs. 1), 3) vs. 1), and 3) vs. 2). • (1) Miralles F et al., Cell, Volume 113, Issue 3, May 2003, 329-342 • (2) Maier S et al., Biochimica et Biophysica Acta (BBA)—Molecular Cell Research, Volume 1783, Issue 6, June 2008, 1150-1162 • (3) Martina et al., The FASEB Journal, Volume 24, Issue 3, March 2010, 778-787 • (4) Asparuhova et al., The FASEB Journal, Volume 25, Issue 10, October 2011, 3477-3488

B1: MKL_L: published long isoform of human MKL1 (SEQ ID NO:3), stably overexpressed in EcR-293 cells from construct 5′UTR-MKL_L (protein, listed as Homo sapiens)
chain: LPPSVIAVNGMDGGGAGENDDEPVLVSLSAAPSPQSEAVANELQELSLQPELTLGLHPGRNPNLPPLSERKNVLQLKLQQRRTREELVSQGIMPPLKSPAAFHEQRRSLERARTEDYLKRKIRSRPERSELVRMHILEETSAEPSLQAKQLKLKRARLADDLNEKIAQRPGPMELVEKNILPVESSLKEAIIVGQVNYPKVADSSSFDEDSSDALSPEQPASHESQGSVPSPLEARVSEPLLSATSASPTQVVSQLPMGRDSREMLFLAEQPPLPPPPLLPPSLTNGTTIPTAKSTPTLIKQSQPKSASEKSQRSKKAKELKPKVKKLKYHQYIPPDQKQDRGAPPMDSSYAKILQQQQLFLQLQILNQQQQQHHNYQAILPAPPKSAGEALGSSGTPPVRSLSTTNSSSSSGAPGPCGLARQNSTSLTGKPGALPANLDDMKVAELKQELKLRSLPVSGTKTELIERLRAYQDQISPVPGAPKAPAATSILHKAGEVVVAFPAARLSTGPALVAAGLAPAEVVVATVASSGVVKFGSTGSTPPVSPTPSERSLLSTGDENSTPGDTFGEMVTSPLTQLTLQASPLQILVKEEGPRAGSCCLSPGGRAELEGRDKDQMLQEKDKQIEALTRMLRQKQQLVERLKLQLEQEKRAQQPAPAPAPLGTPVKQENSFSSCQLSQQPLGPAHPFNPSLAAPATNHIDPCAVAPGPPSVVVKQEALQPEPEPVPAPQLLLGPQGPSLIKGVAPPTLITDSTGTHLVLTVTNKNADSPGLSSGSPQQPSSQPGSPAPAPSAQMDLEHPLQPLFGTPTSLLKKEPPGYEEAMSQQPKQQENGSSSQQMDDLFDILIQSGEISADFKEPPSLPGKEKPSPKTVCGSPLAAQPSPSAELPQAAPPPPGSPSLPGRLEDFLESSTGLPLLTSGHDGPEPLSLIDDLHSQMLSSTAILDHPPSPMDTSELHFVPEPSSTMGLDLADGHLDSMDWLELSSGGPVLSLAPLSTTAPSLFSTDFLDGHDLQLHWDSCL
ACTA2 fold change vs. control (4 h after LPA treatment): +1.86 (7.22E−05) fold
ADAM21 fold change vs. control (4 h after LPA treatment): −1.36 (8.44E−04) fold
AMBN fold change vs. control (4 h after LPA treatment): +3.09 (3.65E−06) fold
CNN2 fold change vs. control (4 h after LPA treatment): <1.20 fold
DSEL fold change vs. control (4 h after LPA treatment): +1.56 (1.45E−04) fold
ESRRG fold change vs. control (4 h after LPA treatment): +1.71 (2.20E−07) fold
MKL1 (total) fold change vs. control (4 h after LPA treatment): +4.61 (4.29E−09) fold
MMP16 fold change vs. control (4 h after LPA treatment): +2.30 (4.46E−05) fold
NAP1L3 fold change vs. control (4 h after LPA treatment): +1.86 (1.01E−04) fold
OSTN fold change vs. control (4 h after LPA treatment): <1.20 fold
PDGFD fold change vs. control (4 h after LPA treatment): +1.50 (2.62E−05) fold
ROCK1P1 fold change vs. control (4 h after LPA treatment): <1.20 fold
RORB fold change vs. control (4 h after LPA treatment): +1.53 (5.71E−05) fold
SLC8A1 fold change vs. control (4 h after LPA treatment): +2.18 (6.58E−07) fold
SPOCK3 fold change vs. control (4 h after LPA treatment): +2.31 (1.61E−06) fold
ACTA2 fold change vs. control (untreated cells): +2.62 (5.99E−08) fold
ADAM21 fold change vs. control (untreated cells): −1.27 (1.586−02) fold
AMBN fold change vs. control (untreated cells): −1.89 (2.18E−04) fold
CNN2 fold change vs. control (untreated cells): +1.65 (2.35E−06) fold
DSEL fold change vs. control (untreated cells): +1.61 (4.36E−04) fold
ESRRG fold change vs. control (untreated cells): +2.14 (6.11E−08) fold
MKL1 (total) fold change vs. control (untreated cells): +5.68 (1.23E−12) fold
MMP16 fold change vs. control (untreated cells): +1.47 (6.97E−04) fold
NAP1L3 fold change vs. control (untreated cells): +1.54 (7.53E−04) fold
OSTN fold change vs. control (untreated cells): −2.38 (2.56E−05) fold
PDGFD fold change vs. control (untreated cells): +1.93 (7.54E−05) fold
ROCK1P1 fold change vs. control (untreated cells): <1.20 fold
RORB fold change vs. control (untreated cells): +2.27 (5.80E−08) fold
SLC8A1 fold change vs. control (untreated cells): +1.89 (1.37E−07) fold
SPOCK3 fold change vs. control (untreated cells): +1.63 (7.80E−05) fold
